The values below are quoted from earlier work in publication PMC9363672.

A word on the Kd: it is a measure of binding affinity in units of concentration.

This data set addresses syndecan 3 (Homo sapiens) (UniProt O75056).
UniProt O75056, sequence (O75056 whole entry): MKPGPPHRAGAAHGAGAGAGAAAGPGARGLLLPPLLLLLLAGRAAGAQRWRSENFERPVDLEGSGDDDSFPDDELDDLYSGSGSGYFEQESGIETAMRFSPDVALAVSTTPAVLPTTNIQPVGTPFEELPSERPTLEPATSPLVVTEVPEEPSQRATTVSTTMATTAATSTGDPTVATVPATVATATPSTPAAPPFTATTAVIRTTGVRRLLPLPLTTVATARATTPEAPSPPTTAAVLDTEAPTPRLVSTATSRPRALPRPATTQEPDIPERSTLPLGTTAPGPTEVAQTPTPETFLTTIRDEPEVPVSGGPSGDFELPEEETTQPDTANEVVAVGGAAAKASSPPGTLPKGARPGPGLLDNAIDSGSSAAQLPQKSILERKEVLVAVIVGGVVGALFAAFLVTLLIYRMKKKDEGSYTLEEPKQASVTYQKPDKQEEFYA

As for pleiotrophin (from UniProt P21246), the Kd is 6 nM.
